One block for each substance: values may come before it.
How the values were obtained:
[1] = tested on: TcL5 (ribosomal protein L5) (Trypanosoma cruzi CL Brener); assay: filter binding; conditions: 10 mM Tris pH 7.4, 1 mM EDTA, 100 mM NaCl, 0.1% NP40, 100 ug/mL BSA; room temperature, 30 min; 0.5 fmol RNA in 50 ul, 0-500 nM protein
[2] = tested on: TcP37/NRBD (Trypanosoma cruzi CL Brener); assay: filter binding; conditions: 10 mM Tris pH 7.4, 1 mM EDTA, 100 mM NaCl, 0.1% NP40, 100 ug/mL BSA; room temperature, 30 min; 0.5 fmol RNA in 50 ul, 0-500 nM protein
[3] = target: TcP37/NRBD (T. cruzi (endogenous in CL Brener epimastigotes)); assay: co-IP; anti-P34/P37 antibody cross-linked to Protein A Dynabeads, 1 mg epimastigote whole cell extract, 4°C overnight, washed in PBS-T; pellet and supernatant blotted with anti-TcL5 peptide antibody; extracts with or without RNase A (20 U/ml, 1 hour, 37°C)
rTcL5 (T. cruzi) = assay: co-IP; 500 ng rTcP37/NRBD and 500 ng rTcL5, with or without 500 ng in vitro transcribed Tc 5S rRNA, applied to TcL5 antibody cross-linked Dynabeads; eluate and supernatant blotted with P34/P37 antibodies

Substance: Tc 5S rRNA
- Kd [1]: 0.011 µM
- Kd [2]: 0.063 µM

- decrease of the association after RNase A treatment of the extract [3]: 74%
Substance: TcL5 (natural protein)

- increase of the association in the presence of 5S rRNA (rTcL5 (T. cruzi)): 62%
Substance: rTcP37/NRBD (natural protein)
